From patent WO2010106812A1 (dated 2010) come the findings set out here.

The assay deals with T1, soluble human FcRn (human, UniProt P55899 24-290; P61769 21-119).
T1 construct: Complex of FcRn and beta 2-microglobulin; the secreted protein lacks them
Nature of the assay: Biacore, human FcRn.

T1 sequence (P55899 24-290 limits assumed, chain 1 of 2): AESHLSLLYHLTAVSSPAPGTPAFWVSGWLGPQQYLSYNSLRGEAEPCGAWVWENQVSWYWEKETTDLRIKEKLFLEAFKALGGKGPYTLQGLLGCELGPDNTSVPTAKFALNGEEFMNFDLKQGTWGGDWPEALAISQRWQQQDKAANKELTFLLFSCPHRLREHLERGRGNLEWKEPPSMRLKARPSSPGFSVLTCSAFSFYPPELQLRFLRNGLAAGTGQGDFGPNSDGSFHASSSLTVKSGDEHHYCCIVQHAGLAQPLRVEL
T1 sequence (P61769 21-119 limits assumed, chain 2 of 2): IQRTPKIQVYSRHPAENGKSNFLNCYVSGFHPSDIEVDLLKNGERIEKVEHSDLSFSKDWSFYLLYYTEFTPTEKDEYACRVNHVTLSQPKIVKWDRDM

B1: TOCILIZUMAB-M58 (antibody, IgG2)
heavy: QVQLQESGPGLVRPSQTLSLTCTVSGYSITSDHAWSWVRQPPGRGLEWIGYISYSGITTYNPSLKSRVTMLRDTSKNQFSLRLSSVTAADTAVYYCARSLARTTAMDYWGQGSLVTVSSASTKGPSVFPLAPSSKSTSGGTAALGCLVKDYFPEPVTVSWNSGALTSGVHTFPAVLQSSGLYSLSSVVTVPSSNFGTQTYTCNVDHKPSNTKVDKTVERKSCVECPPCPAPPVAGPSVFLFPPKPKDTLMISRTPEVTCVVVDVSQEDPEVQFNWYVDGVEVHNAKTKPREEQFNSTFRVVSVLTVVHQDWLNGKEYKCKVSNKGLPAPIEKTISKTKGQPREPQVYTLPPSQEEMTKNQVSLTCLVKGFYPSDIAVEWESNGQPENNYKTTPPMLDSDGSFFLYSKLTVDKSRWQEGNVFSCSVMHEALHNHYTQKSLSLSP
light: not shown
notes: IgG2-derived constant region (WT-SKSC with further changes, Gly446 and Lys447 deleted); also called WT-M58/WT-kappa
Turning to B1, the “fold binding against TOCILIZUMAB-IgG1” value is roughly 1.4 times.

B2: TOCILIZUMAB-M73 (antibody)
heavy: QVQLQESGPGLVRPSQTLSLTCTVSGYSITSDHAWSWVRQPPGRGLEWIGYISYSGITTYNPSLKSRVTMLRDTSKNQFSLRLSSVTAADTAVYYCARSLARTTAMDYWGQGSLVTVSSASTKGPSVFPLAPSSKSTSGGTAALGCLVKDYFPEPVTVSWNSGALTSGVHTFPAVLQSSGLYSLSSVVTVPSSNFGTQTYTCNVDHKPSNTKVDKTVERKSCVECPPCPAPPVAGPSVFLFPPKPKDTLMISRTPEVTCVVVDVSQEDPEVQFNWYVDGVEVHNAKTKPREEQFNSTFRVVSVLTVVHQDWLNGKEYKCKVSNKGLPAPIEKTISKTKGQPREPQVYTLPPSQEEMTKNQVSLTCLVKGFYPSDIAVEWESNGQPENNYKTTPPMLDSDGSFFLYSKLTVDKSRWQEGNVFSCSVMHEALHAHYTQKSLSLSP
light: not shown
notes: WT-M58 with asparagine 434 (EU) changed to alanine; also called WT-M73/WT-kappa
In the case of B2, the “fold binding against TOCILIZUMAB-IgG1” value is roughly 3.8 times.
